Measured values from article PMC2625307.

Tests used:
[1] = biological target: HIV-1 MN-8 envelope (HIV-1 group M)
[2] = biological target: SIVcpz GAB-2 62 fl envelope (SIVcpz (P.t.t))
[3] = biological target: HIV-1 WEAU 16-8M envelope (HIV-1 group M)
[4] = biological target: HIV-1 NL4.3 envelope (HIV-1 group M)
[5] = biological target: SIVcpz GAB-1 fl envelope (SIVcpz (P.t.t)) (UniProt P17281)
[6] = biological target: HIV-1 SUMA d736-73 envelope (HIV-1 group M)
[7] = biological target: HIV-1 SUMA d736-68 envelope (HIV-1 group M)
[8] = biological target: HIV-1 MN-25 envelope (HIV-1 group M)
[Phe^23]M33 = SPR
CD4M33 = experiment: SPR
[Phe^23]M47 = SPR
CD4M47 = experiment: SPR

Sequence of SIVcpz GAB-1 fl envelope (SIVcpz (P.t.t)) (P17281 32-854): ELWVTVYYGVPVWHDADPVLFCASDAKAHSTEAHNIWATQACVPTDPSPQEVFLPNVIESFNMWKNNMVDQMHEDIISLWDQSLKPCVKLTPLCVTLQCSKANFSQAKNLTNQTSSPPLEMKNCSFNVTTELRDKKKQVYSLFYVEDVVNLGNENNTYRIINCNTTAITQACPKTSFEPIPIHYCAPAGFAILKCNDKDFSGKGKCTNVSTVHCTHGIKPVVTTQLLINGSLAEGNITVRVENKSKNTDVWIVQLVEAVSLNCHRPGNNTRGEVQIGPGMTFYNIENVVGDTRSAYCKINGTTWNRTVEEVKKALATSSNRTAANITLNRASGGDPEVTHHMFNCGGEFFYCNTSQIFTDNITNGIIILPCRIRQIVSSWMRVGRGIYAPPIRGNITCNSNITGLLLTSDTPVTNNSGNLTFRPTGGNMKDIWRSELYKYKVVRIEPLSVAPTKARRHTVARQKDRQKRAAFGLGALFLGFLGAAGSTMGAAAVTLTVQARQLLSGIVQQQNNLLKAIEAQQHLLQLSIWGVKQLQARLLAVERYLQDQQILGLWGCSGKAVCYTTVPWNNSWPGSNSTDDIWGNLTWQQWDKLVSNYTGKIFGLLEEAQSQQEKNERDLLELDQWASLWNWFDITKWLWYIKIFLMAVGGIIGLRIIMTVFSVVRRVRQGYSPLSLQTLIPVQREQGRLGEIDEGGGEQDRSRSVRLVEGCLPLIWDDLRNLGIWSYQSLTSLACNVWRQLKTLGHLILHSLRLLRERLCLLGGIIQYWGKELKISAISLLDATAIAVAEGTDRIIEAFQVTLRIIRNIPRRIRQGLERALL

In the case of CD4M33 (designed binder), the IC50 of neutralisation, HIV-entry assay on JC53BL-13 indicator cells [1] is reported as 34 nM, the IC50 of neutralisation, HIV-entry assay on JC53BL-13 indicator cells [2] is reported as 400 nM and the IC50 of neutralisation, HIV-entry assay on JC53BL-13 indicator cells [3] is reported as 85 nM. It also gave an IC50 of neutralisation, HIV-entry assay on JC53BL-13 indicator cells [4] of 5 nM, an IC50 of neutralisation, HIV-entry assay on JC53BL-13 indicator cells [5] of 340 nM and an IC50 of neutralisation, HIV-entry assay on JC53BL-13 indicator cells [6] of 480 nM. For the same substance, the IC50 of neutralisation, HIV-entry assay on JC53BL-13 indicator cells [7] was 4 nM and the IC50 of neutralisation, HIV-entry assay on JC53BL-13 indicator cells [8] was 350 nM.

For CD4M47 (designed binder), the IC50 of neutralisation, HIV-entry assay on JC53BL-13 indicator cells [1] was 11 nM, the IC50 of neutralisation, HIV-entry assay on JC53BL-13 indicator cells [2] was 230 nM and the IC50 of neutralisation, HIV-entry assay on JC53BL-13 indicator cells [3] was 64 nM. For the same substance, the IC50 of neutralisation, HIV-entry assay on JC53BL-13 indicator cells [4] was 3 nM, the IC50 of neutralisation, HIV-entry assay on JC53BL-13 indicator cells [5] was 150 nM and the IC50 of neutralisation, HIV-entry assay on JC53BL-13 indicator cells [6] was 370 nM. For the same substance, the IC50 of neutralisation, HIV-entry assay on JC53BL-13 indicator cells [7] was 3 nM and the IC50 of neutralisation, HIV-entry assay on JC53BL-13 indicator cells [8] was 150 nM.

Work on “YU2 gp120 (from UniProt P35961 32-498) (natural protein)” yielded a Kd ([Phe^23]M33) of 35.1 nM, a koff ([Phe^23]M33) of 0.00475 s⁻¹ and a kon ([Phe^23]M33) of 135000 M⁻¹ s⁻¹. The Kd (CD4M33) was 12.5 nM, the koff (CD4M33) was 0.00272 s⁻¹ and the kon (CD4M33) was 218000 M⁻¹ s⁻¹. The Kd ([Phe^23]M47) was 3.87 nM, the koff ([Phe^23]M47) was 0.000427 s⁻¹ and the kon ([Phe^23]M47) was 110000 M⁻¹ s⁻¹. It also gave a Kd (CD4M47) of 2.12 nM, a koff (CD4M47) of 0.000741 s⁻¹ and a kon (CD4M47) of 349000 M⁻¹ s⁻¹.

[Phe^23]M33 (designed binder) gave an IC50 of neutralisation, HIV-entry assay on JC53BL-13 indicator cells [1] of 85 nM, an IC50 of neutralisation, HIV-entry assay on JC53BL-13 indicator cells [2] of 1000 nM and an IC50 of neutralisation, HIV-entry assay on JC53BL-13 indicator cells [3] of 130 nM. The IC50 of neutralisation, HIV-entry assay on JC53BL-13 indicator cells [4] was 13 nM, the IC50 of neutralisation, HIV-entry assay on JC53BL-13 indicator cells [5] was 350 nM and the IC50 of neutralisation, HIV-entry assay on JC53BL-13 indicator cells [6] was 8500 nM. For the same substance, the IC50 of neutralisation, HIV-entry assay on JC53BL-13 indicator cells [8] was 3600 nM.

With [Phe^23]M47 (designed binder) the IC50 of neutralisation, HIV-entry assay on JC53BL-13 indicator cells [1] was 15 nM, the IC50 of neutralisation, HIV-entry assay on JC53BL-13 indicator cells [2] was 290 nM and the IC50 of neutralisation, HIV-entry assay on JC53BL-13 indicator cells [3] was 47 nM. The IC50 of neutralisation, HIV-entry assay on JC53BL-13 indicator cells [4] was 4 nM, the IC50 of neutralisation, HIV-entry assay on JC53BL-13 indicator cells [5] was 69 nM and the IC50 of neutralisation, HIV-entry assay on JC53BL-13 indicator cells [6] was 950 nM. For the same substance, the IC50 of neutralisation, HIV-entry assay on JC53BL-13 indicator cells [7] was 7 nM and the IC50 of neutralisation, HIV-entry assay on JC53BL-13 indicator cells [8] was 320 nM.
